Values of other authors as cited in patent US20110118324A1, “METHOD AND COMPOSITION FOR TREATING MULTIPLE SCLEROSIS (VARIANTS)” (priority 2009, published 2011).

Test system: multiple sclerosis patients

B1: Betaferon: a recombinant human Beta-1b interferon (protein, UniProt P01574 22-187, looked up, variant C17S)
Interferon beta: MSYNLLGFLQRSSNFQSQKLLWQLNGRLEYCLKDRMNFDIPEEIKQLQQFQKEDAALTIYEMLQNIFAIFRQDSSSTGWNETIVENLLANVYHQINHLKTVLEEKLEKEDFTRGKLMSSLHLKRYYGRILHYLKAKEYSHCAWTIVRVEILRNFYFINRLTGYLRN
modifications: lacks N-terminal Met, non-glycosylated
notes: a recombinant human Beta-1b interferon
reduction of the frequency of acute conditions occurring in the disease: 30% | reduction of the severity of acute conditions: 30% | side effects: intensified depressive symptomatology
